{"source": "patent US20160355836", "key": {"GST-PT8-CTS512A": {"system": "T1, GST-PT8-CTS512A", "T1 sequence": "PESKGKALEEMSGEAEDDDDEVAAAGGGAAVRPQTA"}, "[1]": {"system": "T2, GST-PT8-CTS517 (not phosphorylated)", "T2 sequence": "T1 sequence with A7S"}, "GST-PT8-CTS517A": {"system": "T3, GST-PT8-CTS517A", "T3 sequence": "T1 sequence with A7S, S12A"}}, "note": "Residue numbers refer to the chain shown, from its start."}
{"substance": "GST-CK2α3", "values": [{"measurement": "in vitro phosphorylation assay ([γ-32P]ATP)", "setting": "GST-PT8-CTS512A", "value": "Mutation of S517, but not S512, prevented phosphorylation of PT8-CT"}, {"measurement": "in vitro phosphorylation assay ([γ-32P]ATP)", "setting": "[1]", "value": "the PT8-CT was phosphorylated by the catalytic subunit CK2 α3"}, {"measurement": "in vitro phosphorylation assay ([γ-32P]ATP)", "setting": "GST-PT8-CTS517A", "value": "Mutation of S517, but not S512, prevented phosphorylation of PT8-CT"}]}
